In patent publication US20220389077A1, “ALLOGENEIC CELL COMPOSITIONS AND METHODS OF USE” (Poseida Therapeutics, Inc., priority 2018, published 2022):

B1: CD2z CSR: chimeric stimulatory receptor: CD2 signal peptide, extracellular, transmembrane and cytoplasmic domains with CD3z intracellular domain (SEQ ID NO: 17062) (protein)
chain: MSFPCKFVASFLLIFNVSSKGAVSKEITNALETWGALGQDINLDIPSFQMSDDIDDIKWEKTSDKKKIAQFRKEKETFKEKDTYKLFKNGTLKIKHLKTDDQDIYKVSIYDTKGKNVLEKIFDLKIQERVSKPKISWTCINTTLTCEVMNGTDPELNLYQDGKHLKLSQRVITHKWTTSLSAKFKCTAGNKVSKESSVEPVSCPEKGLDIYLIIGICGGGSLLMVFVALLVFYITKRKKQRSRRNDEELETRAHRVATEERGRKPHQIPASTPQNPATSQHPPPPPGHRSQAPSHRPPPPGHRVQHQPQKRPPAPSGTQVHQQKGPPLPRPRVQPKPPHGAAENSLSPSSNRVKFSRSADAPAYKQGQNQLYNELNLGRREEYDVLDKRRGRDPEMGGKPRRKNPQEGLYNELQKDKMAEAYSEIGMKGERRRGKGHDGLYQGLSTATKDTYDALHMQALPPR

Key:
eK562-Luc.BCMA = assay: Luciferase killing assay, 48 hour co-culture; assay type: cell-based; settings: 10:1, 3:1, 1:1 E:T
Protocol: After secondary expansion, cells (Mock (WT T cells), WT CAR-T cells, DKO CAR-T cells, DKO CAR-T cells+CD2z CSR, and DKO CAR-T cells+CD28z CSR) were co-cultured with engineered K562-BCMA-Luciferase (eK562-Luc.BCMA) or negative control line K562-PSMA-Luciferase (eK562-Luc.PSMA) for 48 hours at 10:1, 3:1, or 1:1 E:T ratios. Luciferase signal was measured to determine cytotoxicity. Killing of eK562-Luc.PSMA is shown in dotted lines, while killing of eK562-Luc.BCMA is shown in solid lines. All CAR^+ T cells expressed an anti-BCMA specific CAR.
CSRs were delivered to CAR-T cells either transiently by mRNA or stably by piggyBac®. Pan T cells isolated from the blood of a normal donor were genetically modified using the piggyBac® DNA modification system and the standard Poseida process. Cells were co-electroporated in a single reaction with mRNA encoding the Super piggyBac™ transposase enzyme (SPB), a transposon encoding a BCMA CAR and selection gene, along with an additional mRNA encoding a CSR (either CD28z or CD2z; resulting in transient expression), or, with a transposon encoding a BCMA CAR, selection gene and a CSR (either CD28z or CD2z; resulting in stable expression). The cells were subsequently stimulated with agonist mAbs anti-CD2, anti-CD3 and anti-CD28, and were later selected for genetic modification over the course of a 19 day culture period. At the end of the initial culture period all T cells expressed the CAR, indicating successful selection for genetically-modified cells (data not shown). To assess CAR-T cell ability to kill, cells were co-cultured with engineered K562-BCMA-Luciferase (eK562-Luc.BCMA) or negative control line K562-Luciferase (eK562-Luc) for 48 hours at 10:1, 3:1, or 1:1 E:T ratios. Luciferase signal was measured to determine cytotoxicity. Killing of eK562-Luc is shown in bar graph on left, while killing of eK562-Luc.BCMA is shown in bar graph on right.

Lag3, PD1, and Tim3 = assay: Flow cytometry for exhaustion molecules; assay type: cell-based, human; settings: compared to mock T cells
Excerpt: Mock (WT T cells), WT CAR-T cells, DKO CAR-T cells, DKO CAR-T cells+CD2z, and DKO CAR-T cells+CD28z were examined by flow cytometry for the expression of important exhaustion molecules Lag3, PD1, and Tim3. […] This phenotype may have a negative impact on the in vivo functionality of these CAR T cells since they appear to be more exhausted.

[1] = tested on: CD45RA, CD45RO, and CD62L; assay: Memory phenotype by surface CD45RA, CD45RO and CD62L staining; assay type: cell-based, human; settings: WT and DKO CAR-T cells
Excerpt: WT CAR-T cells, DKO CAR-T cells, DKO CAR-T cells+CD2z, and DKO CAR-T cells+CD28z were stained for expression of surface CD45RA, CD45RO, and CD62L to define Tscm, Tcm, Tem, and Teff cells; Tscm (CD45RA^+CD45RO^−CD62L^+), Tcm (CD45RA^−CD45RO^+CD62L^+), Tem (CD45RA^−CD45RO^+CD62L^−), Teff (CD45RA^+CD45RO^−CD62L^−). […] This phenotype may have a negative impact on the in vivo functionality of these CAR T cells since they appear to be more differentiated.
Allo CAR-T cells with no CSR and Allo CAR-Ts with CSR that was delivered either stably or transiently were stained for expression of surface CD45RA, CD45RO, and CD62L to define Tscm, Tcm, Tem, and Teff cells; Tscm (CD45RA^+CD45RO^−CD62L), Tcm (CD45RA^−CD45RO^+CD62L^+), Tem (CD45RA^−CD45RO^+CD62L^−), Teff ([…]CD62L^−). All samples were performed in duplicate, and data is shown in bar graph where error bars represent standard deviation.

CAR-T cells = assay: Expansion of CAR-T cells with CSR delivered transiently by mRNA or stably by piggyBac; assay type: cell-based, human; settings: for expansion of CAR-T cells (total live CAR-T cells): 19 day culture, BCMA CAR, CSR transient or stable
Excerpt: FIG. 18 is a graph showing that delivery of CSR enhances the expansion of CAR-T cells. CSRs were delivered to CAR-T cells either transiently by mRNA or stably by piggyBac®. Pan T cells isolated from the blood of a normal donor were genetically modified using the piggyBac® DNA modification system and the standard Poseida process. Cells were co-electroporated in a single reaction with mRNA encoding the Super piggyBac™ transposase enzyme (SPB), a transposon encoding a BCMA CAR and selection gene, along with an additional mRNA encoding a CSR (either CD28z or CD2z; resulting in transient expression) or a CD19 mRNA control, or, with a transposon encoding a BCMA CAR, selection gene and a CSR (either CD28z or CD2z; resulting in stable expression). The cells were subsequently stimulated with agonist mAbs anti-CD2, anti-CD3 and anti-CD28, and were later selected for genetic modification over the course of a 19 day culture period. At the end of the initial culture period all T cells expressed the CAR, indicating successful selection for genetically-modified cells (data not shown). Bars represent total live CAR-T cells in well and numbers indicate fold-enhancement of expansion above CAR-T cells produced in the absence of a CSR or a CD19 mRNA control.
Pan T cells isolated from healthy donor blood were genetically modified using the piggyBac® DNA modification system in combination with the Cas-CLOVER™ gene-editing system (CC) for the production of allogeneic (Allo) CAR-T cells, or without CC gene-editing for the production of autologous (Auto) CAR-T cells; auto CAR-T cells were produced by nucleofection of an mRNA encoding the super piggyBac® transposase enzyme (SPB) and a transposon encoding a CAR, selection gene and a safety switch. […] Following EP, all cells were subsequently stimulated with a cocktail of agonist mAbs anti-CD2, anti-CD3 and anti-CD28, and were later selected for genetic modification over the course of a 19-day culture period using the selection gene. […]

[2] = CAR-T cells with transient (mRNA) or stable (piggyBac) CSR

| Molecule | in vitro cytotoxicity (luciferase signal) (eK562-Luc.BCMA; [2]) | in vitro cytotoxicity (luciferase signal) (eK562-Luc.BCMA; DKO CAR-T cells) | expression of exhaustion molecules Lag3, PD1, and Tim3 (Lag3, PD1, and Tim3) | memory phenotype (Tscm, Tcm, Tem, Teff) [1] | expansion of CAR-T cells (total live CAR-T cells) (CAR-T cells) | expansion of CAR-T cells compared to CAR-T cells produced without a CSR (CAR-T cells; 19-day culture, Auto and Allo CAR-T, CSR stable or mRNA 5, 10, 20 μg) |
| --- | --- | --- | --- | --- | --- | --- |
| CD28z CSR: chimeric stimulatory receptor: CD28 signal peptide, extracellular, transmembrane and cytoplasmic domains with CD3z intracellular domain (SEQ ID NO: 17060) | not significantly affected | not significantly affected | significant upregulation of exhaustion markers Lag3, PD1, and Tim3 | significantly more differentiated, favoring Tcm and Tem cells | a greater degree of expansion |  |
| B1 | not significantly affected | not significantly affected | little to no expression of exhaustion molecules | comprised predominantly of exceptionally high levels of favorable Tscm and Tcm cells | a greater degree of expansion | a greater degree of expansion |
